{
  "source": "patent US20250043302A1",
  "about": "“MUTATED HYDROXYPHENYLPYRUVATE DIOXYGENASE POLYPEPTIDE, AND CODING GENE AND USE THEREOF” (BEIJING DABEINONG BIOTECHNOLOGY CO., LTD., priority 2021, published 2025)",
  "system": "Arabidopsis thaliana T1 plants",
  "experiment": "Mesotrione tolerance of transgenic Arabidopsis thaliana T1 plants (spray, bleached leaf area grade, damage score)",
  "format": "in vivo",
  "parameters": "Scores: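 damage score 0-100 computed as Σ(N×S)/(T×M)×100 over grades 0-3 with higher meaning more damage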",
  "conditions": "Arabidopsis thaliana T1 plants; for Grade 0 (classification and statistics of the grade of pesticide damage; number of plants) / Grade 1 (classification and statistics of the grade of pesticide damage; number of plants) / Grade 2 (classification and statistics of the grade of pesticide damage; number of plants) / Grade 3 (classification and statistics of the grade of pesticide damage; number of plants): 16 plants",
  "text": "T1 transformants were initially selected from the untransformed seeds using a glufosinate selection scheme. The Arabidopsis thaliana T1 plants (AsHPPD-02) into which the AsHPPD-02 nucleotide sequence was introduced, the Arabidopsis thaliana T1 plants (AsHPPDm-F372A-02) into which the AsHPPDm-F372A-02 nucleotide sequence was introduced, the Arabidopsis thaliana T1 plants (AsHPPDm-F383W-02) into which the AsHPPDm-F383W-02 nucleotide sequence was introduced, the Arabidopsis thaliana T1 plants (AsHPPDm-F372A-F383W-02) into which the AsHPPDm-F372A-F383W-02 nucleotide sequence was introduced, the Arabidopsis thaliana T1 plants (DBN11726N) into which the control recombinant expression vector DBN11726N was introduced, and the wild-type Arabidopsis thaliana plants (CK) (18 days after sowing) were sprayed respectively with topramezone at three concentrations (100 g ai/ha (four-fold field concentration, 4×), 200 g ai/ha (eight-fold field concentration, 8×), and 0 g ai/ha (water, 0×)), isoxaflutole at three concentrations (140 g ai/ha (two-fold field concentration, 2×), 280 g ai/ha (four-fold field concentration, 4×), and 0 g ai/ha (water, 0×)), and mesotrione at three concentrations (210 g ai/ha (two-fold field concentration, […]), 420 g ai/ha (four-fold field concentration, 4×), and 0 g ai/ha (water, 0×)), to determine the tolerance of Arabidopsis thaliana to the herbicides. The degree of damage caused by the herbicide was measured for each plant according to the proportion of bleached leaf area (the proportion of bleached leaf area=bleached leaf area/total leaf area×100%) 7 days after spraying (7 DAT): the case where there is basically no bleached phenotype is defined as grade 0, the case where the proportion of bleached leaf area is less than 50% is defined as grade 1, the case where the proportion of bleached leaf area is more than 50% is defined as grade 2, and the case where the proportion of bleached leaf area is 100% grade is defined as grade 3.\nAccording to the method as described above in point 6 of Example 1, the aforementioned Arabidopsis thaliana T1 plants and wild-type Arabidopsis thaliana plants (CK) (18 days after sowing) were sprayed respectively with topramezone at three concentrations (25 g ai/ha (one-fold field concentration, 1×). 100 g ai/ha (four-fold field concentration, 4×), and 0 g ai/ha (water, 0×)), isoxaflutole at three concentrations (35 g ai/ha (half-fold field concentration, 0.5×). 70 g ai/ha (one-fold field concentration, 1×), and 0 g ai/ha (water, 0×)), and mesotrione at three concentrations (52.5 g ai/ha (half-fold field concentration, 0.5×), 105 g ai/ha (one-fold field concentration, 1×), and 0 g ai/ha (water, 0×)) to detect the tolerance of Arabidopsis thaliana to the herbicides.\nAccording to the method as described above in point 6 of Example 1, the aforementioned Arabidopsis thaliana T1 plants and wild-type Arabidopsis thaliana plants (CK) (18 days after sowing) were sprayed with topramezone at three different concentrations (i.e., 100 g ai/ha (four-fold field concentration, 4×), 200 g ai/ha (eight-fold field concentration, 8×) and 0 g ai/ha (water, 0×)), isoxaflutole at three different concentrations (i.e., 140 g ai/ha (two-fold field concentration, 2×), 280 g ai/ha (four-fold field concentration, 4×) and 0 g ai/ha (water, 0×)), and mesotrione at three different concentrations (i.e., 210 g ai/ha (two-fold field concentration, 2×), 420 g ai/ha (four-fold field concentration, 4×) and 0 g ai/ha (water, 0×)) respectively to detect the herbicide tolerance of Arabidopsis thaliana. […]",
  "data": [
    {"molecule": "PfHPPDm-F383W-02: nucleotide sequence encoding Pseudomonas fluorescens HPPD with F383W; vector DBN11772 (nucleic acid, PfHPPDm-F383W-02 Nucleotide Sequence, vector DBN11772) DNA: ATGGCCGATTTGTACGAGAACCCAATGGGACTCATGGGTTTCGAGTTCATTGAGTTCGCTTCCCCCACCCCAGGTACTTTGGAGCCTATTTTCGAGATCATGGGCTTCACTAAGGTTGCCACACACAGGTCTAAGAATGTGCATCTCTACCGCCAAGGAGAGATTAACCTGATCCTTAACAATGAGCCTAATAGCATCGCCTCATACTTCGCTGCTGAGCATGGTCCATCTGTTTGCGGCATGGCTTTCAGAGTGAAGGATTCACAAAAGGCCTACAACAGGGCTTTGGAGCTCGGCGCCCAGCCCATTCATATCGACACCGGACCTATGGAGCTGAATCTTCCTGCCATTAAGGGCATCGGCGGAGCTCCATTGTACCTCATTGATCGCTTCGGCGAGGGCTCCTCTATCTACGATATCGACTTCGTGTACCTGGAGGGCGTTGAGAGAAACCCTGTGGGAGCTGGTCTGAAGGTTATCGACCACCTTACTCATAATGTTTACAGAGGAAGGATGGTGTACTGGGCCAACTTCTACGAGAAGCTGTTCAATTTCCGCGAGGCTAGATACTTCGATATTAAGGGCGAGTACACAGGACTTACCTCCAAGGCCATGTCTGCTCCCGACGGTATGATTAGGATCCCATTGAACGAGGAGAGCTCAAAGGGCGCCGGACAGATTGAGGAGTTCCTCATGCAATTCAATGGTGAAGGCATCCAGCACGTTGCTTTCCTGACAGATGACCTTGTGAAGACCTGGGATGCCCTCAAGAAGATTGGCATGAGGTTCATGACCGCTCCACCTGACACTTACTACGAGATGTTGGAGGGACGCCTCCCTGATCATGGCGAGCCCGTTGACCAGCTGCAAGCTAGAGGAATCCTCCTGGATGGTTCCTCTGTGGAGGGCGACAAGAGGCTTTTGCTCCAAATTTTCAGCGAGACTCTTATGGGACCCGTGTGGTTCGAGTTCATCCAGAGGAAGGGCGATGACGGATTCGGCGAGGGCAACTTCAAGGCCCTGTTCGAGTCTATTGAGAGAGATCAGGTGAGGCGCGGCGTTCTTACAGCTGACTGA", "values": [
      {"measurement": "Resistance evaluation", "setting": "mesotrione 52.5 g ai/ha", "value": "Non-resistant"},
      {"measurement": "Scores", "setting": "mesotrione 52.5 g ai/ha", "value": 77},
      {"measurement": "Grade 0 (classification and statistics of the grade of pesticide damage; number of plants)", "setting": "mesotrione 52.5 g ai/ha", "value": 0},
      {"measurement": "Grade 1 (classification and statistics of the grade of pesticide damage; number of plants)", "setting": "mesotrione 52.5 g ai/ha", "value": 0},
      {"measurement": "Grade 2 (classification and statistics of the grade of pesticide damage; number of plants)", "setting": "mesotrione 52.5 g ai/ha", "value": 11},
      {"measurement": "Grade 3 (classification and statistics of the grade of pesticide damage; number of plants)", "setting": "mesotrione 52.5 g ai/ha", "value": 5},
      {"measurement": "Resistance evaluation", "setting": "mesotrione 105 g ai/ha", "value": "Non-resistant"},
      {"measurement": "Scores", "setting": "mesotrione 105 g ai/ha", "value": 100},
      {"measurement": "Grade 0 (classification and statistics of the grade of pesticide damage; number of plants)", "setting": "mesotrione 105 g ai/ha", "value": 0},
      {"measurement": "Grade 1 (classification and statistics of the grade of pesticide damage; number of plants)", "setting": "mesotrione 105 g ai/ha", "value": 0},
      {"measurement": "Grade 2 (classification and statistics of the grade of pesticide damage; number of plants)", "setting": "mesotrione 105 g ai/ha", "value": 0},
      {"measurement": "Grade 3 (classification and statistics of the grade of pesticide damage; number of plants)", "setting": "mesotrione 105 g ai/ha", "value": 16}
    ]}
  ]
}
